From patent EP4745153A1, “GLP-1, GIP AND GCG RECEPTOR […] USE THEREOF” (Jiangsu Hengrui Pharmaceuticals Co., Ltd., priority 2023, dated 2025) come the findings set out here.

Experiment in all cases: cell-based or functional assay
In experiment [1] the target is human glucagon-like peptide-1 receptor (human, UniProt P43220 24-463).
The target in experiment [2] is T1, human glucose-dependent insulinotropic polypeptide receptor (human, UniProt P48546 22-466).
T1 sequence (looked up): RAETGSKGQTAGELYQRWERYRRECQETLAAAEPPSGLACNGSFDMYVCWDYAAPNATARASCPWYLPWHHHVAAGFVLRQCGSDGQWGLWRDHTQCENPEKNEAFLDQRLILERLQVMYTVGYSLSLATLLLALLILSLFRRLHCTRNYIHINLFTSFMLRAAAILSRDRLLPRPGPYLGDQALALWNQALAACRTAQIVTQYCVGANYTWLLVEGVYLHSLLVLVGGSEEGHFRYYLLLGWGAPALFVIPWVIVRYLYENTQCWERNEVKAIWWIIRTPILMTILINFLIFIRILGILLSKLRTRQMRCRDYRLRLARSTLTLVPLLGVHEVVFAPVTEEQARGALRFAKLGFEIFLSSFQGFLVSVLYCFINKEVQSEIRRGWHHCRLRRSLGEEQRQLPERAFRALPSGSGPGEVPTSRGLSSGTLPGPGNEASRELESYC

In a further experiment the target is human glucagon receptor (human, UniProt P47871 26-477).

Starred links: 1 amine or outer side, 2 acyl side, 3 side chain; linkers in the order of their positions; H or OH if unused. Non-standard residues stand in square brackets, D forms with d. Groups on a side chain read outwards from the residue. No end group written: not given here. *: point of attachment. C20 diacid = O=C(O)CCCCCCCCCCCCCCCCCCC(=O)*; γGlu = O=C(O)[C@H](CCC(=O)[*:2])N[*:1]; Ac4c = NC1(C(=O)O)CCC1; AEEA = NCCOCCOCC(=O)O; Ac3c = NC1(C(=O)O)CC1; Aib = CC(C)(N)C(=O)O

human glucagon receptor, sequence (P47871 26-477): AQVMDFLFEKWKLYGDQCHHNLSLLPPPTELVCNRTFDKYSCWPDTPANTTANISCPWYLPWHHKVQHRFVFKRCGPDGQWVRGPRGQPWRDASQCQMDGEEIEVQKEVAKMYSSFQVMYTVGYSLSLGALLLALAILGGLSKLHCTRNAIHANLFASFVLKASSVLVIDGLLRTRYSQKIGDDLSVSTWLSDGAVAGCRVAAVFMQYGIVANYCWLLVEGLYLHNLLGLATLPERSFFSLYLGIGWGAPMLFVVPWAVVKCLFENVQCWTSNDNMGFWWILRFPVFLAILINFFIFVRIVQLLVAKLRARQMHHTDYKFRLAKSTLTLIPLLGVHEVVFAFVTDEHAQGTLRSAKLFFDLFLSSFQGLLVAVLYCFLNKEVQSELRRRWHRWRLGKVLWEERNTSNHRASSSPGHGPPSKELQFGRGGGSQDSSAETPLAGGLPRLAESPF

B1: Compound No. 0146 (peptide)
peptide: H[Aib]HGTFTSDLSILLEK([AEEA-AEEA-γGlu-C20 diacid])KAA[Ac3c]EFVEWLLA[dE]GPSSGAPPPS-NH2
modifications: N-terminus assumed
SMILES: CC[C@H](C)[C@H](NC(=O)[C@H](CO)NC(=O)[C@H](CC(C)C)NC(=O)[C@H](CC(=O)O)NC(=O)[C@H](CO)NC(=O)[C@@H](NC(=O)[C@H](Cc1ccccc1)NC(=O)[C@@H](NC(=O)CNC(=O)[C@H](Cc1c[nH]cn1)NC(=O)C(C)(C)NC(=O)[C@@H](N)Cc1c[nH]cn1)[C@@H](C)O)[C@@H](C)O)C(=O)N[C@@H](CC(C)C)C(=O)N[C@@H](CC(C)C)C(=O)N[C@@H](CCC(=O)O)C(=O)N[C@@H](CCCCNC(=O)COCCOCCNC(=O)COCCOCCNC(=O)CC[C@H](NC(=O)CCCCCCCCCCCCCCCCCCC(=O)O)C(=O)O)C(=O)N[C@@H](CCCCN)C(=O)N[C@@H](C)C(=O)N[C@@H](C)C(=O)NC1(C(=O)N[C@@H](CCC(=O)O)C(=O)N[C@@H](Cc2ccccc2)C(=O)N[C@H](C(=O)N[C@@H](CCC(=O)O)C(=O)N[C@@H](Cc2c[nH]c3ccccc23)C(=O)N[C@@H](CC(C)C)C(=O)N[C@@H](CC(C)C)C(=O)N[C@@H](C)C(=O)N[C@H](CCC(=O)O)C(=O)NCC(=O)N2CCC[C@H]2C(=O)N[C@@H](CO)C(=O)N[C@@H](CO)C(=O)NCC(=O)N[C@@H](C)C(=O)N2CCC[C@H]2C(=O)N2CCC[C@H]2C(=O)N2CCC[C@H]2C(=O)N[C@@H](CO)C(N)=O)C(C)C)CC1
Take B1: in experiment [1], the “Activity against human GLP-1R (EC50 nM)” value was found to be 0.033 nM. In addition, the “Activity against human GIPR (EC50 nM)” value in experiment [2] worked out at 0.009 nM. For the same molecule, in the experiment with human glucagon receptor, the “Activity against human GCGR (EC50 nM)” value amounted to 0.146 nM.

B2: Compound No. 0147 (peptide)
peptide: H[Aib]HGTFTSDLSILLEK([AEEA-AEEA-γGlu-C20 diacid])KAA[Ac4c]EFVEWLLA[dE]GPSSGAPPPS-NH2
modifications: N-terminus assumed
SMILES: CC[C@H](C)[C@H](NC(=O)[C@H](CO)NC(=O)[C@H](CC(C)C)NC(=O)[C@H](CC(=O)O)NC(=O)[C@H](CO)NC(=O)[C@@H](NC(=O)[C@H](Cc1ccccc1)NC(=O)[C@@H](NC(=O)CNC(=O)[C@H](Cc1c[nH]cn1)NC(=O)C(C)(C)NC(=O)[C@@H](N)Cc1c[nH]cn1)[C@@H](C)O)[C@@H](C)O)C(=O)N[C@@H](CC(C)C)C(=O)N[C@@H](CC(C)C)C(=O)N[C@@H](CCC(=O)O)C(=O)N[C@@H](CCCCNC(=O)COCCOCCNC(=O)COCCOCCNC(=O)CC[C@H](NC(=O)CCCCCCCCCCCCCCCCCCC(=O)O)C(=O)O)C(=O)N[C@@H](CCCCN)C(=O)N[C@@H](C)C(=O)N[C@@H](C)C(=O)NC1(C(=O)N[C@@H](CCC(=O)O)C(=O)N[C@@H](Cc2ccccc2)C(=O)N[C@H](C(=O)N[C@@H](CCC(=O)O)C(=O)N[C@@H](Cc2c[nH]c3ccccc23)C(=O)N[C@@H](CC(C)C)C(=O)N[C@@H](CC(C)C)C(=O)N[C@@H](C)C(=O)N[C@H](CCC(=O)O)C(=O)NCC(=O)N2CCC[C@H]2C(=O)N[C@@H](CO)C(=O)N[C@@H](CO)C(=O)NCC(=O)N[C@@H](C)C(=O)N2CCC[C@H]2C(=O)N2CCC[C@H]2C(=O)N2CCC[C@H]2C(=O)N[C@@H](CO)C(N)=O)C(C)C)CCC1
Consider B2, for which the “Activity against human GLP-1R (EC50 nM)” value in experiment [1] came out at 0.035 nM. Further, the “Activity against human GIPR (EC50 nM)” value in experiment [2] is 0.005 nM. Moreover, the “Activity against human GCGR (EC50 nM)” value with human glucagon receptor was determined as 0.041 nM.
